Measurements as given in the Immune Epitope Database (IEDB).

What was measured:
Conditions in all cases: source organism: Lyssavirus rabies
HLA-A*66:01 = assay: IEDB peptide-MHC binding, purified MHC/competitive/fluorescence; filed as Kd, often an IC50 or EC50 that approximates it; ≥ and ≤ were set here for values at or beyond the usual limits of such assays
HLA-B*07:02 = assay: as above
HLA-A*30:02 = assay: as above
HLA-A*01:01 = assay: as above
HLA-A*02:01 = assay: IEDB peptide-MHC binding, purified MHC/direct/fluorescence; filed as Kd, often an IC50 or EC50 that approximates it; ≥ and ≤ were set here for values at or beyond the usual limits of such assays
HLA-A*02:19 = assay: as above
HLA-B*15:01 = assay: as above
HLA-A*03:01 = assay: as above
HLA-B*46:01 = assay: as above
HLA-A*29:02 = assay: as above
HLA-A*02:12 = assay: as above
HLA-A*26:01 = assay: as above
HLA-B*15:17 = assay: as above
HLA-B*18:01 = assay: as above
HLA-A*02:11 = assay: as above
HLA-B*39:01 = assay: as above
HLA-C*03:03 = assay: as above
HLA-B*51:01 = assay: as above
HLA-A*24:03 = assay: as above
HLA-A*02:06 = assay: as above
HLA-A*02:03 = assay: as above
HLA-B*57:01 = assay: as above
HLA-A*23:01 = assay: as above
HLA-B*27:03 = assay: as above
HLA-A*69:01 = assay: as above

YLDNVGVHI
Kd (HLA-A*66:01): ≥ 5 µM
Kd (HLA-B*07:02): ≥ 5 µM
Kd (HLA-A*30:02): ≥ 5 µM
Kd (HLA-A*01:01): ≥ 5 µM
Kd (HLA-A*02:01): ≥ 20 µM
Kd (HLA-A*02:19): ≥ 20 µM
Kd (HLA-B*15:01): ≥ 20 µM
Kd (HLA-A*03:01): ≥ 20 µM
Kd (HLA-B*46:01): ≥ 20 µM
Kd (HLA-A*29:02): ≥ 20 µM
Kd (HLA-A*02:12): 0.007 µM
Kd (HLA-A*26:01): ≥ 20 µM
Kd (HLA-B*15:17): ≥ 20 µM
Kd (HLA-B*18:01): ≥ 20 µM
Kd (HLA-A*02:11): ≥ 20 µM
Kd (HLA-B*39:01): ≥ 20 µM
Kd (HLA-C*03:03): ≥ 20 µM
Kd (HLA-B*51:01): ≥ 20 µM
Kd (HLA-A*24:03): ≥ 20 µM
Kd (HLA-A*02:06): 0.036 µM
Kd (HLA-A*02:03): ≥ 20 µM
Kd (HLA-B*57:01): ≥ 20 µM
Kd (HLA-A*23:01): ≥ 20 µM
Kd (HLA-B*27:03): ≥ 20 µM
Kd (HLA-A*69:01): ≥ 20 µM
